Experimental data: patent US6951919 (MOCHIDA PHARMACEUTICAL, dated 2005)

T1: Fas on mouse W4 cells (mouse WR19L cell transformants that overexpress Fas) (UniProt P25446 22-327, limits assumed)
T1 sequence (looked up): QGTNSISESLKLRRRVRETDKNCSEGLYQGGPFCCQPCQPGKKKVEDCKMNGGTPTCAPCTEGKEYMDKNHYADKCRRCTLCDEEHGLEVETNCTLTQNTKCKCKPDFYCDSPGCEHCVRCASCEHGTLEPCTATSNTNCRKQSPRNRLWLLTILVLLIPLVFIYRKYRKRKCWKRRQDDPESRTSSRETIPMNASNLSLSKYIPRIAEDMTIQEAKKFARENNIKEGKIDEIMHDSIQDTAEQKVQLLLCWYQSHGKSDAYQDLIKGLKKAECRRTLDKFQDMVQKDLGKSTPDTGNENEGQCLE

T2: Fas expressed endogenously on human Jurkat cells (human, UniProt P25445 26-335)
T2 sequence (looked up): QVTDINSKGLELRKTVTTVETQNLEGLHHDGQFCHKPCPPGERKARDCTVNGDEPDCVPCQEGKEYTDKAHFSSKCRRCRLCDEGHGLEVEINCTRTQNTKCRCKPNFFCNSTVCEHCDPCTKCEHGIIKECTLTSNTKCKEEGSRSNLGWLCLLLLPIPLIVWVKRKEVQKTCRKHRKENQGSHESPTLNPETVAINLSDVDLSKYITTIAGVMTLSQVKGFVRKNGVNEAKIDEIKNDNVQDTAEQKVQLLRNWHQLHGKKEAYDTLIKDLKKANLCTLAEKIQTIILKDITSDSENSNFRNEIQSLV

B1: D4 deletion mutant of human FasL (amino acids 8-69 and 111-133 deleted) (ligand)
chain: MQQPFNYPLKKRGNHSTGLCLLVMFFMVLVALVGLGLGMFQLFHLQKEPSPPPEKKELRKVAHLTGKSNSRSMPLEWEDTYGIVLLSGVKYKKGGLVINETGLYFVYSKVYFRGQSCNNLPLSHKVYMRNSKYPQDLVMMEGKMMSYCTTGQMWARSSYLGAVFNLTSADHLYVNVSELSLVNFEESQTFFGLYKL
B2: human soluble Fas ligand, P48023 130-281 (ligand)
chain: QIGHPSPPPEKKELRKVAHLTGKSNSRSMPLEWEDTYGIVLLSGVKYKKGGLVINETGLYFVYSKVYFRGQSCNNLPLSHKVYMRNSKYPQDLVMMEGKMMSYCTTGQMWARSSYLGAVFNLTSADHLYVNVSELSLVNFEESQTFFGLYKL

Legend:
Assay in all cases: cell-based or functional assay
[1] = target: T1, Fas on mouse W4 cells (mouse WR19L cell …)
[2] = target: T2, Fas expressed endogenously on human …
[3] = target: Fas expressed endogenously on mouse primary hepatocytes (mouse), P25446

Binder	specific killing of W4 cells at an E/T ratio of 5.0, 51Cr-release [1] [%]	specific killing of Jurkat cells at an E/T ratio of 3.0, 51Cr-release [2] [%]	concentration of soluble FasL that blocks half of the cytotoxic activity of membrane-bound FasL (D4 mutant) on mouse hepatocytes at E/T 2.0, GOT release [3] [µg/mL]
B1	~50	≥ 20	
B2			0.4
